Data published in PMC12102759 (2025).

B1: RNF115 peptide 69-84 (E3 ubiquitin-protein ligase RNF115), 16-mer library wild type / MDM2 SWIB (MDM2 SWIB/MDM2 domain, residues 17-125) (parent complex)
chain 1: THFAELWGHLDHTMFF
chain 2: SQIPASEQETLVRPKPLLLKLLKSVGAQKDTYTMKEVLFYLGQYIMTKRLYDEKQQHIVYCSNDLLGDLFGVPSFSVKEHRKIYTMIYRNLVVVNQQESSDSGTSVSEN
B2: MXI1 peptide 6-21 (Max-interacting protein 1), 16-mer library wild type / SIN3A PAH2 (SIN3A PAH domain, residues 295-383) (parent complex)
chain 1: MINVQRLLEAAEFLER
chain 2: SLQNNQPVEFNHAINYVNKIKNRFQGQPDIYKAFLEILHTYQKEQRNAKEAGGNYTPALTEQEVYAQVARLFKNQEDLLSEFGQFLPDA

Variants of: B1
Assay: proteomic peptide phage display deep mutational scan (ProP-PD DMS): M13 P8 16-mer library selected against immobilised GST-tagged bait for four days (rounds), NGS of the eluted pools per day and pseudo-replica; bait immobilised on MaxiSorp plates (10 µg), library pre-cleared on GST, 2 h binding at 4 °C, five washes; one round per day, days 1-4; value from days 2 and 3

Variant	screen value
chain 1 F15T	0.00702 average fractional NGS count over selection days 2 and 3 (reads of this peptide / all reads for the bait, averaged over …
chain 1 F15A	0.0214 average fractional NGS count over selection days 2 and 3 (reads of this peptide / all reads for the bait, averaged over …
chain 1 F15I	0.00139 average fractional NGS count over selection days 2 and 3 (reads of this peptide / all reads for the bait, averaged over …
chain 1 F15N	0.000153 average fractional NGS count over selection days 2 and 3 (reads of this peptide / all reads for the bait, averaged over …
chain 1 F15V	0.0496 average fractional NGS count over selection days 2 and 3 (reads of this peptide / all reads for the bait, averaged over …
chain 1 F15G	0.00105 average fractional NGS count over selection days 2 and 3 (reads of this peptide / all reads for the bait, averaged over …
chain 1 H2P	0.00101 average fractional NGS count over selection days 2 and 3 (reads of this peptide / all reads for the bait, averaged over …
chain 1 H2L	0.00441 average fractional NGS count over selection days 2 and 3 (reads of this peptide / all reads for the bait, averaged over …
chain 1 H2T	0.00209 average fractional NGS count over selection days 2 and 3 (reads of this peptide / all reads for the bait, averaged over …
chain 1 H2K	0.000959 average fractional NGS count over selection days 2 and 3 (reads of this peptide / all reads for the bait, averaged over …
chain 1 H12K	0.00015 average fractional NGS count over selection days 2 and 3 (reads of this peptide / all reads for the bait, averaged over …
chain 1 H12I	0.000167 average fractional NGS count over selection days 2 and 3 (reads of this peptide / all reads for the bait, averaged over …
chain 1 H12A	0.00464 average fractional NGS count over selection days 2 and 3 (reads of this peptide / all reads for the bait, averaged over …
chain 1 M14T	0.00238 average fractional NGS count over selection days 2 and 3 (reads of this peptide / all reads for the bait, averaged over …
chain 1 M14V	0.00137 average fractional NGS count over selection days 2 and 3 (reads of this peptide / all reads for the bait, averaged over …
chain 1 M14A	0.00114 average fractional NGS count over selection days 2 and 3 (reads of this peptide / all reads for the bait, averaged over …
chain 1 M14G	0.000223 average fractional NGS count over selection days 2 and 3 (reads of this peptide / all reads for the bait, averaged over …
chain 1 M14L	0.000799 average fractional NGS count over selection days 2 and 3 (reads of this peptide / all reads for the bait, averaged over …
chain 1 T13K	0.000352 average fractional NGS count over selection days 2 and 3 (reads of this peptide / all reads for the bait, averaged over …
chain 1 T13S	0.0255 average fractional NGS count over selection days 2 and 3 (reads of this peptide / all reads for the bait, averaged over …
chain 1 T13N	0.00271 average fractional NGS count over selection days 2 and 3 (reads of this peptide / all reads for the bait, averaged over …
chain 1 T13L	0.00319 average fractional NGS count over selection days 2 and 3 (reads of this peptide / all reads for the bait, averaged over …
chain 1 T13I	0.00105 average fractional NGS count over selection days 2 and 3 (reads of this peptide / all reads for the bait, averaged over …
chain 1 L6Q	0.000157 average fractional NGS count over selection days 2 and 3 (reads of this peptide / all reads for the bait, averaged over …
chain 1 L6W	0.000846 average fractional NGS count over selection days 2 and 3 (reads of this peptide / all reads for the bait, averaged over …
chain 1 L6I	0.000313 average fractional NGS count over selection days 2 and 3 (reads of this peptide / all reads for the bait, averaged over …
chain 1 L6Y	0.00417 average fractional NGS count over selection days 2 and 3 (reads of this peptide / all reads for the bait, averaged over …

Variant	screen value
chain 1 L6H	0.00174 average fractional NGS count over selection days 2 and 3 (reads of this peptide / all reads for the bait, averaged over …
chain 1 A4D	0.000369 average fractional NGS count over selection days 2 and 3 (reads of this peptide / all reads for the bait, averaged over …
chain 1 A4N	0.000396 average fractional NGS count over selection days 2 and 3 (reads of this peptide / all reads for the bait, averaged over …
chain 1 A4G	0.000193 average fractional NGS count over selection days 2 and 3 (reads of this peptide / all reads for the bait, averaged over …
chain 1 A4Y	0.000442 average fractional NGS count over selection days 2 and 3 (reads of this peptide / all reads for the bait, averaged over …
chain 1 A4Q	0.000494 average fractional NGS count over selection days 2 and 3 (reads of this peptide / all reads for the bait, averaged over …
chain 1 T1I	0.000116 average fractional NGS count over selection days 2 and 3 (reads of this peptide / all reads for the bait, averaged over …
chain 1 T1S	0.00105 average fractional NGS count over selection days 2 and 3 (reads of this peptide / all reads for the bait, averaged over …
chain 1 T1N	0.000471 average fractional NGS count over selection days 2 and 3 (reads of this peptide / all reads for the bait, averaged over …
chain 1 T1Q	0.00081 average fractional NGS count over selection days 2 and 3 (reads of this peptide / all reads for the bait, averaged over …
chain 1 T1A	0.00514 average fractional NGS count over selection days 2 and 3 (reads of this peptide / all reads for the bait, averaged over …
chain 1 T1P	0.00338 average fractional NGS count over selection days 2 and 3 (reads of this peptide / all reads for the bait, averaged over …
chain 1 G8S	0.0101 average fractional NGS count over selection days 2 and 3 (reads of this peptide / all reads for the bait, averaged over …
chain 1 G8E	0.00632 average fractional NGS count over selection days 2 and 3 (reads of this peptide / all reads for the bait, averaged over …
chain 1 G8K	0.000179 average fractional NGS count over selection days 2 and 3 (reads of this peptide / all reads for the bait, averaged over …
chain 1 E5Q	0.00197 average fractional NGS count over selection days 2 and 3 (reads of this peptide / all reads for the bait, averaged over …
chain 1 H9M	0.00238 average fractional NGS count over selection days 2 and 3 (reads of this peptide / all reads for the bait, averaged over …
chain 1 H9Q	0.00185 average fractional NGS count over selection days 2 and 3 (reads of this peptide / all reads for the bait, averaged over …
chain 1 H9W	0.000883 average fractional NGS count over selection days 2 and 3 (reads of this peptide / all reads for the bait, averaged over …
chain 1 H9Y	0.000619 average fractional NGS count over selection days 2 and 3 (reads of this peptide / all reads for the bait, averaged over …
chain 1 H9D	0.0019 average fractional NGS count over selection days 2 and 3 (reads of this peptide / all reads for the bait, averaged over …
chain 1 D11G	0.000731 average fractional NGS count over selection days 2 and 3 (reads of this peptide / all reads for the bait, averaged over …
chain 1 D11N	0.00248 average fractional NGS count over selection days 2 and 3 (reads of this peptide / all reads for the bait, averaged over …
chain 1 D11K	0.000112 average fractional NGS count over selection days 2 and 3 (reads of this peptide / all reads for the bait, averaged over …
chain 1 D11R	0.000139 average fractional NGS count over selection days 2 and 3 (reads of this peptide / all reads for the bait, averaged over …
chain 1 D11I	0.000389 average fractional NGS count over selection days 2 and 3 (reads of this peptide / all reads for the bait, averaged over …

Variants of: B2
Assay: as above

Variant	screen value
chain 1 N3H	0.000207 average fractional NGS count over selection days 2 and 3 (reads of this peptide / all reads for the bait, averaged over …
chain 1 N3M	0.0121 average fractional NGS count over selection days 2 and 3 (reads of this peptide / all reads for the bait, averaged over …
chain 1 N3Y	0.000298 average fractional NGS count over selection days 2 and 3 (reads of this peptide / all reads for the bait, averaged over …
chain 1 N3T	0.00466 average fractional NGS count over selection days 2 and 3 (reads of this peptide / all reads for the bait, averaged over …
chain 1 N3G	0.00333 average fractional NGS count over selection days 2 and 3 (reads of this peptide / all reads for the bait, averaged over …
chain 1 N3P	0.00138 average fractional NGS count over selection days 2 and 3 (reads of this peptide / all reads for the bait, averaged over …
chain 1 N3W	0.000465 average fractional NGS count over selection days 2 and 3 (reads of this peptide / all reads for the bait, averaged over …
chain 1 N3L	0.0228 average fractional NGS count over selection days 2 and 3 (reads of this peptide / all reads for the bait, averaged over …
chain 1 F13S	0.000565 average fractional NGS count over selection days 2 and 3 (reads of this peptide / all reads for the bait, averaged over …
chain 1 F13D	0.00238 average fractional NGS count over selection days 2 and 3 (reads of this peptide / all reads for the bait, averaged over …
chain 1 F13N	0.00134 average fractional NGS count over selection days 2 and 3 (reads of this peptide / all reads for the bait, averaged over …
chain 1 F13T	0.00119 average fractional NGS count over selection days 2 and 3 (reads of this peptide / all reads for the bait, averaged over …
chain 1 F13K	0.00119 average fractional NGS count over selection days 2 and 3 (reads of this peptide / all reads for the bait, averaged over …
chain 1 F13V	0.000201 average fractional NGS count over selection days 2 and 3 (reads of this peptide / all reads for the bait, averaged over …
chain 1 F13A	0.000255 average fractional NGS count over selection days 2 and 3 (reads of this peptide / all reads for the bait, averaged over …
chain 1 F13E	0.000282 average fractional NGS count over selection days 2 and 3 (reads of this peptide / all reads for the bait, averaged over …
chain 1 E15I	0.0148 average fractional NGS count over selection days 2 and 3 (reads of this peptide / all reads for the bait, averaged over …
chain 1 E15V	0.0659 average fractional NGS count over selection days 2 and 3 (reads of this peptide / all reads for the bait, averaged over …
chain 1 E15R	0.000127 average fractional NGS count over selection days 2 and 3 (reads of this peptide / all reads for the bait, averaged over …
chain 1 E15L	0.0492 average fractional NGS count over selection days 2 and 3 (reads of this peptide / all reads for the bait, averaged over …
chain 1 E15K	0.000258 average fractional NGS count over selection days 2 and 3 (reads of this peptide / all reads for the bait, averaged over …
chain 1 E15W	0.00827 average fractional NGS count over selection days 2 and 3 (reads of this peptide / all reads for the bait, averaged over …
